Reference: publication PMC12610408, “An Unbiased Cell‐Culture Selection Yields DNA Aptamers as Novel Senescent Cell‐Specific Reagents”

Molecular target: fibronectin (native, purified from mouse plasma) (mouse, UniProt P11276 33-2477)
Assay: BLI; BLI: streptavidin biosensors, biotinylated aptamer (500 nM) immobilized, fibronectin analyte, 1x Octet Kinetics Buffer, 30 C, 1:1 fit; pull-down: streptavidin Dynabeads M-270, beads washed in PBS + 5 mM MgCl2
Conditions: protein: native; chain copies: 2; label: 5' 6-FAM; 3' BioTEG

Chain of fibronectin (native, purified from mouse plasma) (P11276 33-2477): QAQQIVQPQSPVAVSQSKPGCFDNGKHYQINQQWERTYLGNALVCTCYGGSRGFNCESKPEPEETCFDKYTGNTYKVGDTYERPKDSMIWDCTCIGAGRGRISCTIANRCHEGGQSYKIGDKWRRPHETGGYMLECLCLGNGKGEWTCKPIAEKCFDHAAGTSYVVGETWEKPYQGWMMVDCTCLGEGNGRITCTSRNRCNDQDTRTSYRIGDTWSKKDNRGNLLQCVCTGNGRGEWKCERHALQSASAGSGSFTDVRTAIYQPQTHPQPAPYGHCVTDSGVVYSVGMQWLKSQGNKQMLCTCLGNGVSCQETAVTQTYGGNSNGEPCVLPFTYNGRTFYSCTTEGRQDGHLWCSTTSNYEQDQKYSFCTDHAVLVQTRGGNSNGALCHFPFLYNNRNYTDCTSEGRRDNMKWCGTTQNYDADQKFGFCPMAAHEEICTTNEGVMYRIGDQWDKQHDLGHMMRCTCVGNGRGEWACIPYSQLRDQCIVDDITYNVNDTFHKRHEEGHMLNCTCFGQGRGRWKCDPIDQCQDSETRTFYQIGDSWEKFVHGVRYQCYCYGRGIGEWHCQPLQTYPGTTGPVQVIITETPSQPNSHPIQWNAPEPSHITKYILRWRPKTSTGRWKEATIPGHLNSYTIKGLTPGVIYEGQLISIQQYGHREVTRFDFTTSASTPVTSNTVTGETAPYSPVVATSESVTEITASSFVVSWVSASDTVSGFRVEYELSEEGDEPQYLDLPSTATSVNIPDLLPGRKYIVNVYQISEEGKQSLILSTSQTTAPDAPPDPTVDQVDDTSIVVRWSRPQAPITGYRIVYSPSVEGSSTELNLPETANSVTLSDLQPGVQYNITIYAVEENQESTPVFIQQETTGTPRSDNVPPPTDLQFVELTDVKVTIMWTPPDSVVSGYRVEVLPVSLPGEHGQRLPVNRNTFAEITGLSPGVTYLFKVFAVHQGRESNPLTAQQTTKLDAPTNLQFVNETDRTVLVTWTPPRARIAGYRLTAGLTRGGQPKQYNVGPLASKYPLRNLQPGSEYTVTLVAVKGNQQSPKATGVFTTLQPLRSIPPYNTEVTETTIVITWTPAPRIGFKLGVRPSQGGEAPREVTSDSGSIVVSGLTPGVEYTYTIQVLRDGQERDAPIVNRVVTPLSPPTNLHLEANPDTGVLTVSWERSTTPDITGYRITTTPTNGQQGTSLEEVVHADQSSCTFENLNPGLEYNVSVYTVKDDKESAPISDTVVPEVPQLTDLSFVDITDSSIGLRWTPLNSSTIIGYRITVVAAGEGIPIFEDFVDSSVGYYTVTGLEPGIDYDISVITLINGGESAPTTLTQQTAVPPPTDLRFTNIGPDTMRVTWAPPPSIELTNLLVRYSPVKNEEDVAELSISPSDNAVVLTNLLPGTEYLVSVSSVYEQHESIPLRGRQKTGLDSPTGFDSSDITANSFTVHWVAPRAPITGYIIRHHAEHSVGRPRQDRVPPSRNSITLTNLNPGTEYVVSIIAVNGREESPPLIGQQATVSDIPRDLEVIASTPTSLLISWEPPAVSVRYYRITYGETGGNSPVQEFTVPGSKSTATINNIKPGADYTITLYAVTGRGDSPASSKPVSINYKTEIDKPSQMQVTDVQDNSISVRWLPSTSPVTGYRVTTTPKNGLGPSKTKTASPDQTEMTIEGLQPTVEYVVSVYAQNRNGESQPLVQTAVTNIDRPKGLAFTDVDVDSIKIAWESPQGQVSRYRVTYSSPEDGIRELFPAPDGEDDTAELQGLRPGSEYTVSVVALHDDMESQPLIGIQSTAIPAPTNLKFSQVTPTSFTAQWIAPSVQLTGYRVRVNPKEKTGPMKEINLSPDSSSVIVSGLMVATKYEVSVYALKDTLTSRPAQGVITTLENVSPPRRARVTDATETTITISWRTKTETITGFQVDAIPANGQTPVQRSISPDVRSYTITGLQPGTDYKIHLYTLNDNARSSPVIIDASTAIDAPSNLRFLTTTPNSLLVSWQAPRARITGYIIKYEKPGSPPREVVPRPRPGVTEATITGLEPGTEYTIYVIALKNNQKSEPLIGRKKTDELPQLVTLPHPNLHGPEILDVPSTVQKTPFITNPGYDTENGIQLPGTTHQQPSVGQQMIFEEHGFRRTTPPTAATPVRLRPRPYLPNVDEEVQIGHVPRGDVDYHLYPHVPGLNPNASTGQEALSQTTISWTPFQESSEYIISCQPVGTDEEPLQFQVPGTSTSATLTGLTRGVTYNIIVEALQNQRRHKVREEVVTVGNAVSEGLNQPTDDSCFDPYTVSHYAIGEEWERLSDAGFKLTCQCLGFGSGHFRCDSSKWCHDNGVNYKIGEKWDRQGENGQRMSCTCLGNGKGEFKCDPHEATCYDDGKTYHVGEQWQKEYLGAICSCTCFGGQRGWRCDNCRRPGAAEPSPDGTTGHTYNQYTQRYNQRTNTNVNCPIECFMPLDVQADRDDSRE

Row | Binder | Kd [nM] | binding result
1 | aptamer 6756 (ssDNA) DNA: TGCGTATTGACACATGCGTGAAACGGACTTTTATTAGACAAATAATGCATGTCTCGAATTCAGGCATAGGTATGGGCTTT | 0.921 | –
2 | negative control oligonucleotide 6766 (ssDNA) DNA: TGCGTATTGACACATGCGTGCTTGTTATATAACGTGTCATAGCGTCCAAAAAGAAGTACACAGGCATAGGTATGGGCTTT | – | no binding
3 | aptamer 6762 (ssDNA) DNA: TGCGTATTGACACATGCGTGGCTTAATGCAATCCATCTGTTGCATTTTTCTAAACGTCGCCAGGCATAGGTATGGGCTTT | 0.579 | –
